The source of these data is patent publication US11994512B2, “Single-cell genomic methods to generate ex vivo cell systems that recapitulate in vivo biology with improved fidelity” (Massachusetts Institute of Technology, priority 2018, dated 2024).

This test relates to intracellular proteome of ENR+CD and ENR organoids. The test can be described thus: LC-MS/MS TMT proteomics of ENR+CD versus ENR organoids. In kind it is cell-based, C57BL/6 mice. To be noted: for Average logFC / M1-1 Log2 Median Normalized / M1-2 Log2 Median Normalized / M2-1 Log2 Median Normalized / M2-2 Log2 Median Normalized: protein abundance, ENR+CD versus ENR organoids; for Average logFC: aggregate of the four sample pairs; for M1-1 Log2 Median Normalized: replicate M1-1; for M1-1 Log2 Median Normalized / M1-2 Log2 Median Normalized / M2-1 Log2 Median Normalized / M2-2 Log2 Median Normalized: log2 ratio; for M1-2 Log2 Median Normalized: replicate M1-2; for M2-1 Log2 Median Normalized: replicate M2-1; for M2-2 Log2 Median Normalized: replicate M2-2; for change: up = enriched in ENR+CD, down = enriched in ENR, FDR<0.05 and log fold change cut-off.

B1: P70429 (protein, UniProt P70429 1-414, looked up)
chain: MSEQSICQARASVMVYDDTSKKWVPIKPGQQGFSRINIYHNTASSTFRVVGVKLQDQQVVINYSIVKGLKYNQATPTFHQWRDARQVYGLNFASKEEATTFSNAMLFALNIMNSQEGGPSTQRQVQNGPSPEEMDIQRRQVMEQQHRQESLERRISATGPILPPGHPSSAASTTLSCSGPPPPPPPPVPPPPTGSTPPPPPPLPAGGAQGTNHDESSASGLAAALAGAKLRRVQRPEDASGGSSPSGTSKSDANRASSGGGGGGLMEEMNKLLAKRRKAASQTDKPADRKEDESQTEDPSTSPSPGTRATSQPPNSSEAGRKPWERSNSVEKPVSSLLSRTPSVAKSPEAKSPLQSQPHSRVKPAGSVNDVGLDALDLDRMKQEILEEVVRELHKVKEEIIDAIRQELSGISTT
modifications: full-length
For B1, the “Average logFC” value is on record as 1.275, the “M1-1 Log2 Median Normalized” value worked out at 1.275, the “M1-2 Log2 Median Normalized” value was determined as 1.519 and the “M2-1 Log2 Median Normalized” value was determined as 1.2085. Further, the “M2-2 Log2 Median Normalized” value was found to be 1.206 and the change entry is recorded as “up”.

B2: P97290 (protein, UniProt P97290 1-504, looked up)
chain: MASRLTPLTLLLLLLAGDRAFSDPEATSHSTQDPLEAQAKSRESFPERDDSWSPPEPTVLPSTWPTTSVAITITNDTMGKVANESFSQHSQPAAQLPTDSPGQPPLNSSSQPSTASDLPTQATTEPFCPEPLAQCSDSDRDSSEAKLSEALTDFSVKLYHAFSATKMAKTNMAFSPFSIASLLTQVLLGAGDSTKSNLESILSYPKDFACVHQALKGFSSKGVTSVSQIFHSPDLAIRDTYVNASQSLYGSSPRVLGPDSAANLELINTWVAENTNHKIRKLLDSLPSDTCLVLLNAVYLSAKWKITFEPKKMMAPFFYKNSMIKVPMMSSVKYPVAQFDDHTLKAKVGQLQLSHNLSFVIVVPVFPKHQLKDVEKALNPTVFKAIMKKLELSKFLPTYLTMPHIKVKSSQDMLSVMEKLEFFDFTYDLNLCGLTEDPDLQVSAMKHETVLELTESGVEAAAASAISFGRSLPIFEVQRPFLFLLWDQQHRFPVFMGRVYDPRG
modifications: full-length
In the case of B2, the “Average logFC” value amounted to 1.245, the “M1-1 Log2 Median Normalized” value stood at 1.362, the “M1-2 Log2 Median Normalized” value was 1.123 and the “M2-1 Log2 Median Normalized” value amounted to 1.2185. Besides, the “M2-2 Log2 Median Normalized” value stood at 1.278 and the change result is reported as “up”.

B3: P56395 (protein, UniProt P56395 1-134, looked up)
chain: MAGQSDKDVKYYTLEEIQKHKDSKSTWVILHHKVYDLTKFLEEHPGGEEVLREQAGGDATENFEDVGHSTDARELSKTYIIGELHPDDRSKIAKPSDTLITTVESNSSWWTNWVIPAISALAVALMYRLYMAED
modifications: full-length
Regarding B3, the “Average logFC” value is recorded as −1.382, the “M1-1 Log2 Median Normalized” value is reported as −1.162, the “M1-2 Log2 Median Normalized” value was −0.964 and the “M2-1 Log2 Median Normalized” value is −1.6925. The “M2-2 Log2 Median Normalized” value is −1.71 and the change entry is recorded as “down”.

B4: P63158 (protein, UniProt P63158 1-215, looked up)
chain: MGKGDPKKPRGKMSSYAFFVQTCREEHKKKHPDASVNFSEFSKKCSERWKTMSAKEKGKFEDMAKADKARYEREMKTYIPPKGETKKKFKDPNAPKRPPSAFFLFCSEYRPKIKGEHPGLSIGDVAKKLGEMWNNTAADDKQPYEKKAAKLKEKYEKDIAAYRAKGKPDAAKKGVVKAEKSKKKKEEEDDEEDEEDEEEEEEEEDEDEEEDDDDE
modifications: full-length
Consider B4, for which the “Average logFC” value is given as −1.338, the “M1-1 Log2 Median Normalized” value was −1.875, the “M1-2 Log2 Median Normalized” value is −1.062 and the “M2-1 Log2 Median Normalized” value was −1.2145. Also, the “M2-2 Log2 Median Normalized” value is recorded as −1.339 and the change entry is listed as “down”.

B5: P56695 (protein, UniProt P56695 1-890, looked up)
chain: MNSGTPPPSPSGPPPPPAPQPQARARLNATASLEQDKIEPPRAPRPQADPSAGRSAGEAAAPEPRAPQTGSREETDRAGPMKADVEIPFEEVLEKAKAGDPKAQTEVGKHYLRLANDADEELNSCSAVAWLILAAKQGRREAVKLLRRCLADRKGITSENEAEVKQLSSETDLERAVRKAALVMYWKLNPKKKKQVAVSELLENVGQVNEQDGGAQPGPVPKSLQKQRRMLERLVSSESKNYIALDDFVELTKKYAKGIIPTNLFLQDEDEDEDELAGKSPEDLPLRQKVVKYPLHAIMEIKEYLIDVASKAGMHWLSTIVPTHHINALIFFFIISNLTIDFFAFFIPLVVFYLSFVSMVICTLKVFQDSKAWENFRTLTDLLLRFEPNLDVEQAEVNFGWNHLEPYIHFLLSVVFVIFSFPLASKDCIPCSELAVISTFFTVTSYMSLSSSAEPYTRRALVTEVAAGLLSLLPTVPVDWRFLKVLGQTFFTVPVGHFIILNVSLPCLLYVYLFYLFFRMAQLRNFKGTYCYLVPYLVCFMWCELSVVILLQSTGLGLVRASIGYFLFLFALPILVAGLALMGTVQFARWFLSLDLTKIMVTTVICGVPLLFRWWTKANFSVMGMVKSLTKSSMVKLILVWLTAILLFCWFYVYRSEGMKVYNSTLTWQQYGFLCGPRAWKETNMARTQILCSHLEGHRVTWTGRFKYVRVTEIDNSAESAINMLPFFLGDWMRCLYGEAYPSCSSGNTSTAEEELCRLKQLAKHPCHIKKFDRYKFEITVGMPFGTNGNRGHEEDDITKDIVLRASSEFKDVLLNLRQGSLIEFSTILEGRLGSKWPVFELKAISCLNCMTQLSPARRHVKIEQDWRSTVHGALKFAFDFFFFPFLSAA
modifications: full-length
Take B5: the “Average logFC” value was found to be 1.149, the “M1-1 Log2 Median Normalized” value came out at 1.527, the “M1-2 Log2 Median Normalized” value was determined as 0.901 and the “M2-1 Log2 Median Normalized” value is 0.7335. For the same molecule, the “M2-2 Log2 Median Normalized” value came out at 1.433 and the change result is “up”.

B6: P81117 (protein, UniProt P81117 1-420, looked up)
chain: MRWRIIQVQYCFLLVPCMLTALEAVPIDVDKTKVHNTEPVENARIEPPDTGLYYDEYLKQVIEVLETDPHFREKLQKADIEEIRSGRLSQELDLVSHKVRTRLDELKRQEVGRLRMLIKAKLDALQDTGMNHHLLLKQFEHLNHQNPNTFESRDLDMLIKAATADLEQYDRTRHEEFKKYEMMKEHERREYLKTLSEEKRKEEESKFEEMKRKHEDHPKVNHPGSKDQLKEVWEETDGLDPNDFDPKTFFKLHDVNNDGFLDEQELEALFTRELEKVYNPQNAEDDMIEMEEERLRMREHVMSEIDNNKDRLVTLEEFLRATEKKEFLEPDSWETLDQQQLFTEDELKEYESIIAIQENELKKRAEELQKQKEDLQRQHDHLEAQKQEYHQAVQHLEQKKLQQGIAPSGPAGELKFEPHT
modifications: full-length
Consider B6, for which the “Average logFC” value worked out at 1.372, the “M1-1 Log2 Median Normalized” value amounted to 1.736, the “M1-2 Log2 Median Normalized” value is reported as 1.385 and the “M2-1 Log2 Median Normalized” value was determined as 1.0905. The “M2-2 Log2 Median Normalized” value amounted to 1.276 and the change entry is reported as “up”.

B7: P97449 (protein, UniProt P97449 1-966, looked up)
chain: MAKGFYISKTLGILGILLGVAAVCTIIALSVVYAQEKNRNAENSATAPTLPGSTSATTATTTPAVDESKPWNQYRLPKTLIPDSYRVILRPYLTPNNQGLYIFQGNSTVRFTCNQTTDVIIIHSKKLNYTLKGNHRVVLRTLDGTPAPNIDKTELVERTEYLVVHLQGSLVEGRQYEMDSQFQGELADDLAGFYRSEYMEGDVKKVVATTQMQAADARKSFPCFDEPAMKAMFNITLIYPNNLIALSNMLPKESKPYPEDPSCTMTEFHSTPKMSTYLLAYIVSEFKNISSVSANGVQIGIWARPSAIDEGQGDYALNVTGPILNFFAQHYNTSYPLPKSDQIALPDFNAGAMENWGLVTYRESSLVFDSQSSSISNKERVVTVIAHELAHQWFGNLVTVAWWNDLWLNEGFASYVEYLGADYAEPTWNLKDLMVLNDVYRVMAVDALASSHPLSSPADEIKTPDQIMELFDSITYSKGASVIRMLSSFLTEDLFKKGLSSYLHTYQYSNTVYLDLWEHLQKAVNQQTAVQPPATVRTIMDRWILQMGFPVITVNTNTGEISQKHFLLDSKSNVTRPSEFNYIWIAPIPFLKSGQEDHYWLDVEKNQSAKFQTSSNEWILLNINVTGYYLVNYDENNWKKLQNQLQTDLSVIPVINRAQIIHDSFNLASAKMIPITLALDNTLFLVKEAEYMPWQAALSSLNYFTLMFDRSEVYGPMKRYLKKQVTPLFFYFQNRTNNWVNRPPTLMEQYNEINAISTACSSGLKECRDLVVELYSQWMKNPNNNTIHPNLRSTVYCNAIAFGGEEEWNFAWEQFRNATLVNEADKLRSALACSKDVWILNRYLSYTLNPDYIRKQDTTSTIISIASNVAGHPLVWDFVRSNWKKLFENYGGGSFSFANLIQGVTRRFSSEFELQQLEQFKADNSATGFGTGTRALEQALEKTRANIDWVKENKDAVFKWFTENSS
modifications: full-length
For the molecule B7, the “Average logFC” value is 1.247, the “M1-1 Log2 Median Normalized” value came out at 1.246, the “M1-2 Log2 Median Normalized” value came to 1.528 and the “M2-1 Log2 Median Normalized” value came out at 1.2875. In addition, the “M2-2 Log2 Median Normalized” value is 0.807 and the change entry is reported as “up”.

B8: P60824 (protein, UniProt P60824 1-172, looked up)
chain: MASDEGKLFVGGLSFDTNEQALEQVFSKYGQISEVVVVKDRETQRSRGFGFVTFENIDDAKDAMMAMNGKSVDGRQIRVDQAGKSSDNRSRGYRGGSAGGRGFFRGGRSRGRGFSRGGGDRGYGGGRFESRSGGYGGSRDYYASRSQGGSYGYRSSGGSYRDSYDSYATHNE
modifications: full-length
As to B8, the “Average logFC” value worked out at 1.155, the “M1-1 Log2 Median Normalized” value was determined as 0.902, the “M1-2 Log2 Median Normalized” value is on record as 1.138 and the “M2-1 Log2 Median Normalized” value is given as 1.3145. The “M2-2 Log2 Median Normalized” value stood at 1.267 and the change entry was “up”.

B9: P97314 (protein, UniProt P97314 1-193, looked up)
chain: MPVWGGGNKCGACGRTVYHAEEVQCDGRSFHRCCFLCMVCRKNLDSTTVAIHDEEIYCKSCYGKKYGPKGYGYGQGAGTLNMDRGERLGIKPESAQPHRPTTNPNTSKFAQKYGGAEKCSRCGDSVYAAEKIIGAGKPWHKNCFRCAKCGKSLESTTLTEKEGEIYCKGCYAKNFGPKGFGYGQGAGALVHAQ
modifications: full-length
As for B9, the “Average logFC” value is −1.204, the “M1-1 Log2 Median Normalized” value is reported as −1.447, the “M1-2 Log2 Median Normalized” value is reported as −1.021 and the “M2-1 Log2 Median Normalized” value is recorded as −1.3045. Further, the “M2-2 Log2 Median Normalized” value is recorded as −1.045 and the change result is recorded as “down”.
